Measurements published in patent publication US20130217572A1, “SPECIFIC DELIVERY OF AGROCHEMICALS” (VRIJE UNIVERSITEIT BRUSSEL, priority 2010, published 2013).

T1: potato lectin (Sigma) (potato, UniProt Q9S8M0 23-323)
T1 construct: Bought glycoprotein, coated on ELISA plates
T1 sequence (looked up): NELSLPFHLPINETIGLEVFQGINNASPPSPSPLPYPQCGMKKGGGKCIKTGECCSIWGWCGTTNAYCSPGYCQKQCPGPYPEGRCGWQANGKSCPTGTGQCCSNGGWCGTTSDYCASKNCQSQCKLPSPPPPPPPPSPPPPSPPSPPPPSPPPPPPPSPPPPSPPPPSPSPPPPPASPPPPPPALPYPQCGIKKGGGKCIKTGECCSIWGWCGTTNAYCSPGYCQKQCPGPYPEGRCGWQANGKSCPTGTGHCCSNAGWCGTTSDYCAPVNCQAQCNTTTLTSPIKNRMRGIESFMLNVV

T2: potato lectin (Solanum tuberosum, UniProt Q9S8M0)
T2 sequence (Q9S8M0 23-323): T1 sequence (looked up)

B1: VHH 3E6 (VHH)
VHH: QVQLQESGGGLVQPGGTLSLSCAASGFNVRWYGMGWFRQAPGKEREGVACISALQETTAYADSVKGRFTLSRDNPKNTLSLQMNNLQPEDTGVYYCATTDCDDSSRMTYTSYLGQGTQVTVSS
notes: also called Monovalent VHH 3E6

Tests used:
[1] = target: T1, potato lectin (Sigma); assay: microcapsule retention; K: amine capsules, BS3 two-step, 1 ug VHH/cm2; potato lectin coat 1 ug/ml; 10% coverage
[2] = target: T1, potato lectin (Sigma); assay: microcapsule retention; C: carboxyl capsules, EDC/Sulfo-NHS, 1 ug VHH/cm2; potato lectin coat 100 ug/ml; 10% coverage
[3] = target: T1, potato lectin (Sigma); assay: microcapsule retention; D: carboxyl capsules, EDC/Sulfo-NHS, 0.1 ug VHH/cm2; potato lectin coat 100 ug/ml; 100% coverage
[4] = target: T1, potato lectin (Sigma); assay: microcapsule retention; H: amine capsules, BS3 one-step, 0.1 ug VHH/cm2; potato lectin coat 1 ug/ml; 100% coverage
[5] = target: T1, potato lectin (Sigma); assay: microcapsule retention; K: amine capsules, BS3 two-step, 1 ug VHH/cm2; potato lectin coat 10 ug/ml; 10% coverage
[6] = target: unrelated antigens; assay: VHH-coupled lambda-cyhalothrin microcapsules retained on wells coated with unrelated antigen; 100% surface coverage
[7] = tested on: grass leaf surface; assay: VHH binding to leaf discs (microscopy); settings: 5 μg/ml in PBS, anti-histidine Alexa-488 detection
Method: (§1) VHH binding to non-fixed leaf discs of potato (variety Désirée), black nightshade, grass, wheat or azalea was investigated. For comparison, binding of CBM3a to non-fixed leaf discs of potato (variety Désirée) was analyzed in parallel. Leaf discs were prepared by punching a fresh potato leaf with a 5 mm belt hole puncher tool. Leaf discs were put immediately in wells of a 96-well plate containing 200 μl per well 5% MPBS or PBS, and incubated for 30 minutes. Leaf discs were transferred to solutions containing 5 μg/ml VHH antibody fragment, respectively 5 μg/ml CBM3a in 2% MPBS or PBS and incubated for 60-90 minutes. Unbound VHH or CBM3a proteins were removed by washing three times with 2% MPBS or PBS. Bound VHH or CBM3a proteins were detected with incubation with monoclonal mouse anti-histidine antibodies directly conjugated with Alexa-488 fluorescent dye (Abd Serotec) in 1% MPBS for 1 hour. Unbound antibodies were removed by washing three times with PBS. Leaf discs were put on glass slides, covered with cover slips, and analyzed by microscopy or on a macrozoom microscope system (Nikon) or a SP5 confocal microscope system (Leica).

[8] = tested on: black nightshade leaf surface; assay: VHH binding to leaf discs (microscopy); settings: 5 μg/ml in PBS, anti-histidine Alexa-488 detection
Method: as §1

[9] = target: T2, potato lectin; assay: ELISA-like assay of VHH-coupled microcapsules on antigen-coated wells; settings: microcapsule binding assays
Method: An ELISA-like assay setup was used to evaluate the interaction of VHH-coupled microcapsules to antigen-containing surfaces. ELISA plates (Maxisorp (Thermo Scientific Nunc) or high bind half area microplates (Greiner Bio-One)) were coated with gum arabic or potato lectin. Coatings were performed overnight with 100 μg/ml gum arabic or potato lectin in PBS. Control wells included blank wells or wells coated with unrelated antigens. Plates were washed three times with PBS with 0.05%-TWEEN®-20 and blocked with 5% skimmed milk in PBS for 1 to 2 hours. VHH-coupled lambda cyhalothrin-containing or Uvitex-containing microcapsules were diluted to appropriate densities in 1% skimmed milk in PBS with 0.05%-TWEEN®-20. Microcapsules were added to the antigen-coated or control wells and allowed to bind for 1 hour. Unbound microcapsules were removed by washing five times with PBS with 0.05%-TWEEN®-20. The bottoms of ELISA plate wells were analyzed for bound microcapsules on a macrozoom microscope system (Nikon). Microcapsules were counted using Volocity image analysis software (Perkin Elmer). A DAPI filter was used to visualize Uvitex microcapsules. White LED illumination and bright field pictures were used for lambda cyhalothrin microcapsules. Controls for lambda cyhalothrin-containing or Uvitex-containing microcapsules included blank microcapsules and microcapsules to which unrelated VHH were coupled.

[10] = tested on: potato leaf discs; assay: VHH binding at different pH; design: species or system potato (variety Désirée); settings: 5 μg/ml; whole range tested from pH 2 to pH 11
Method: In order to test applicability of VHH as binders for greenhouse or field applications where binding supposedly may occur at pH-values, deviating strongly from physiological conditions in which antibodies naturally bind their targets, a leaf dip VHH binding experiment was carried out in a series of solutions with different pH. The following solutions were prepared: 50 mM glycine pH 2.0, 50 mM sodium acetate pH 4.0, 50 mm sodium carbonate pH 9.6, and 10 mM sodium hydroxide pH 11.0. ø 8 mm potato leaf discs (variety Désirée) were cut using a puncher tool. The leaf discs were first equilibrated to the different pH by washing three times with solutions at different pH. Hexahistidine-tagged VHH were diluted to 5 μg/ml in solutions with different pH, added to the corresponding equilibrated leaf discs, and binding of VHH was allowed for 1 hour. After incubation with VHH, leaf discs were washed three times with solutions at the corresponding different pH. After that, all were washed two times with PBS to equilibrate leaf discs to PBS. Bound VHH were detected by incubation with monoclonal mouse anti-histidine antibodies directly conjugated with Alexa-488 fluorescent dye (Abd Serotec) in PBS for 1 hour. Unbound anti-histidine antibodies were removed by washing five times with PBS. Leaf discs were analyzed for bound VHH with microscopy.

[11] = tested on: gum arabic or potato lectin; assay: Lambda cyhalothrin amounts in wells with bound microcapsules (GC/MS-MS); assay type: binding; settings: VHH coupled to lambda cyhalothrin microcapsules
Method: In another experiment lambda cyhalothrin amounts were also determined analytically. 100 μl/well aceton was added to washed wells with bound microcapsules and transferred to glass vials with 10 ml of hexane containing 0.05% triphenylphosphate as internal standard. The amount of lambda cyhalothrin was determined by GC/MS-MS analysis in comparison with calibration solutions. Controls for lambda cyhalothrin microcapsules included blank microcapsules to which no VHH were coupled and microcapsules to which unrelated VHH were coupled. Controls also included wells to which no gum arabic or potato lectin was coated.

[12] = target: unrelated antigens; assay: VHH-coupled lambda-cyhalothrin microcapsules retained on wells coated with unrelated antigen; 20% surface coverage

Row | Molecule | microcapsule counts (microcapsules) [1] | microcapsule counts (microcapsules) [2] | microcapsule counts (microcapsules) [3] | microcapsule counts (microcapsules) [4] | microcapsule counts (microcapsules) [5] | counts of bound microcapsules (microcapsules) [6] | binding to native grass leaf surface [7] | binding to native grass leaf surface ([7]; listed as 3E6) | binding to native black nightshade leaf surface [8] | binding to native black nightshade leaf surface ([8]; listed as 3E6) | binding to antigen-coated surfaces when coupled to a microcapsule [9] | binding to surfaces with unrelated antigens when coupled to a microcapsule [9] | binding to leaf discs at different pH [10] | increase of amounts of lambda cyhalothrin in wells coated with antigen ([11]; compared to blank microcapsules) | increase of amounts of lambda cyhalothrin in wells coated with antigen ([11]; over blank wells not coated with antigen) | counts of bound microcapsules (microcapsules) [12]
1 | Control VHH | 215 | 55 | 515 | 173 | 197 | – | – | – | – | – | – | – | – | – | – | –
2 | B1 | – | – | – | – | – | 861 | binding to leaf surface and wounded plant tissue | bind specifically | binding leaf surface, glandular trichomes, and leaf hairs | bind specifically | capable of binding specifically to antigen-coated surfaces | No significant binding | showed detectable binding | 23 fold | 27 fold | 601
